Among the data in paper PMC12876990, “Targeting secreted PLA2 interactions with EGFR and vimentin to arrest prostate tumour growth” (Cell Death & Disease, 2025) are IC50 values, retold here.

Broadly, the IC50 is the concentration at which inhibition is half-maximal. A low value points to inhibition by little substance.

The experiment addresses T1, vimentin coil 2 (purified fragment).
T1 construct: vimentin, coil 2 fragment, purified; PDB 3TRT was used only for docking; also called second coil of vimentin; source: purified
As to the kind of experiment: ELISA; competition enzyme immunoassay: vimentin coil 2 coated on the plate (15 µg/mL); hGIIA 100 ng/mL in PBS with 0.1% BSA mixed with c2 0.1-100 µM in DMSO, 37 °C, 2 h; detected with 4A1-alkaline phosphatase. As to conditions: both partners purified.

Square brackets hold non-standard residues; d marks the D form. 2Nal = N[C@@H](Cc1ccc2ccccc2c1)C(=O)O

B1: c2 (cyclo-((2-Nal)-Leu-Ser-(2-Nal)-Arg)) (peptide)
chain: cyclo([2Nal]LS[2Nal]R)
SMILES: CC(C)C[C@@H]1NC(=O)[C@H](Cc2ccc3ccccc3c2)NC(=O)[C@H](CCCNC(=N)N)NC(=O)[C@H](Cc2ccc3ccccc3c2)NC(=O)[C@H](CO)NC1=O
In turn, B1 showed an IC50 of 56.5 µM.
